Values quoted from earlier work, collected in PMC3369218 (Biochemistry, 2012).

Details: for E′ (Fe^3+/Fe^2+): 25 °C, pH 7

| Molecule | E′ (Fe^3+/Fe^2+) | reduction potential |
| --- | --- | --- |
| WT CcP from S. cerevisiae: wild-type cytochrome c peroxidase (protein, UniProt P00431 68-361, looked up) Cytochrome c peroxidase, …: TTPLVHVASVEKGRSYEDFQKVYNAIALKLREDDEYDNYIGYGPVLVRLAWHTSGTWDKHDNTGGSYGGTYRFKKEFNDPSNAGLQNGFKFLEPIHKEFPWISSGDLFSLGGVTAVQEMQGPKIPWRCGRVDTPEDTTPDNGRLPDADKDADYVRTFFQRLNMNDREVVALMGAHALGKTHLKNSGYEGPWGAANNVFTNEFYLNLLNEDWKLEKNDANNEQWDSKSGYMMLPTDYSLIQDPKYLSIVKEYANDQDKFFKDFSKAFEKLLENGITFPKDAPSPFIFKTLEEQGL | –0.189 V vs NHE |  |
| CcP(R48K) from S. cerevisiae: cytochrome c peroxidase R48K distal pocket mutant (protein, UniProt P00431 68-361, looked up, variant R48K) Cytochrome c peroxidase, …: TTPLVHVASVEKGRSYEDFQKVYNAIALKLREDDEYDNYIGYGPVLVKLAWHTSGTWDKHDNTGGSYGGTYRFKKEFNDPSNAGLQNGFKFLEPIHKEFPWISSGDLFSLGGVTAVQEMQGPKIPWRCGRVDTPEDTTPDNGRLPDADKDADYVRTFFQRLNMNDREVVALMGAHALGKTHLKNSGYEGPWGAANNVFTNEFYLNLLNEDWKLEKNDANNEQWDSKSGYMMLPTDYSLIQDPKYLSIVKEYANDQDKFFKDFSKAFEKLLENGITFPKDAPSPFIFKTLEEQGL | –0.186 V vs NHE |  |
| Cld from I. dechloratans: chlorite dismutase from Ideonella dechloratans (protein, UniProt Q9F437 39-285, looked up) Chlorite dismutase: AMNTPVDRAKILSAPGVFVAFSTYKIRPDYFKVALAERKGAADEVMAVLEKHKEKVIVDAYLTRGYEAKSDYFLRVHAYDAVAAQAFLVDFRATRFGMYSDVTESLVGITKALNYISKDKSPDLNKGLSGATYAGDAPRFAFMIPVKKNADWWNLTDEQRLKEMETHTLPTLPFLVNVKRKLYHSTGLDDTDFITYFETNDLGAFNNLMLSLAKVPENKYHVRWGNPTVLGTIQPIENLVKTLSMGN | –0.021 V vs NHE | –21 mV |
